Laboratory results: patent US20250163183A1 (COAGULANT THERAPEUTICS, published 2025)
Numbering of substitutions follows the chain as printed. Where “and” joins values, the source holds several entries; their conditions need not be identical. Equal entries are not always repeated.

B1: LP18 (SR16983-R4-P1-A11) (VHH, not shown: small tags and cut ends)
VHH: QLQLVESGGGLVQPGGSLRLSCAASGFTFSTKWMYWVRQGPGKGLERVAAIDAGGTSTYYADSVKGRFTISRDNSENTVYLQMNSLESADTAVYYCARSEGGLFRGRGTQVTVSA
notes: Llama VHH purified from E. coli periplasm
B2: LP7 (SR16983-R3-P2-H08) (VHH, not shown: small tags and cut ends)
VHH: EVQLVESGGGLVQAGGSLRLSCAASGTTFDMNSMGWYRQGPGFKRELVATISMGGDTNYADSVKGRFTISRANAKNTVYMQMNSLKPEDTAVYYCNAERIWPNRRTFWGQGTQVTVSS
notes: as for B1
B3: LP13 (SR16983-R3-P3-G08) (VHH, not shown: small tags and cut ends)
VHH: QLQLVESGGGLVQAGGSLRLSCVASGTTFTIEDIGWHRQAPGKQLELVAVSRGGGNADYSDSVKGRFTISRDNAKTTVYLQMSSLKPEDTAVYYCIAKTKATTKWGRGIQVTVSS
notes: as for B1
B4: LP20 (SR16983-R4-P1-B07) (VHH, not shown: small tags and cut ends)
VHH: QLQLVESGGGLVQAGGSLRLSCTASGSTVRVTAGGWYRQTPGNERELVADIDNGGSTTYADSVKGRFTISRDNAKNAVDLQMNSLKPEDTAVYRCFVIAIPDSAPRPRAYWGQGTEVTVSS
notes: as for B1
B5: LP15 (SR16983-R3-P5-H05) (VHH, not shown: small tags and cut ends)
VHH: QLQLVESGGGLVQAGGSLRLSCAASGTTFSFVYMGWYRQAPGNQRDLVARISSDGSTNYADSVKGRFTISGDNAKNTVYLQMNSLKPEDTARYYCFWNGHTNKWGQGTQVTVSS
notes: as for B1
B6: LP12 (SR16983-R3-P3-F06) (VHH, not shown: small tags and cut ends)
VHH: QLQLVESGGGLVQAGDSLRLSCTSSGLTASTYAMAWFRQAPGKEREFVAVVDWKGDTTYANSVKGRFTLSRDNGKNTNYLQMNSLQPEDTALYYCAARGSPGYVARLYAHWGRGTQVTVSS
notes: as for B1
B7: LP9 (SR16983-R3-P3-B05) (VHH, not shown: small tags and cut ends)
VHH: EVQLVESGGGLVQAGGSLRLSCAASGRTFVGSYVMGWFRQAPGKEREFVAASSRSTGNTVYLDSVKGRFTVSRDDAKNTLYLQMNSLKTEDTAVYYCATRASINYNAATWPYWGQGTQVTVSS
notes: as for B1
B8: LP11 (SR16983-R3-P3-F03) (VHH, not shown: small tags and cut ends)
VHH: B7 VHH with E1Q, V2L, V12A, V71I, Y81F, S86R, T89P, I103V, A107Y, T109A
notes: Llama VHH purified from E. coli periplasm; also made in CHO cells for the endothelial barrier assay
B9: LP2 (SR16983-R2-P3-H10) (VHH, not shown: small tags and cut ends)
VHH: QVQLVESGGGLVQAGGSLRLSCAASGRPISAYTWAWFRQAPGKEREFVAAITSSAGTTYYADSVRGRFTISRDNAENTVYLRMNTLKPEDTAVYYCAADDQGDNWYDHWGQGTQVTVSS
notes: as for B1
B10: LP10 (SR16983-R3-P3-E06) (VHH, not shown: small tags and cut ends)
VHH: QVQLVESGGGLVQAGGSLRLSCAASGTIESINDMGWYRQAPGKQRELVATVSSSGMTNYADSAKGRFTISRDNAKNTMYLQMNSLKPEDTAVYYCKAHISRSYYYDSLGYDYWGQGTQVTVSS
notes: as for B1
B11: LP8 (SR16983-R3-P3-A04) (VHH, not shown: small tags and cut ends)
VHH: QLQLVESGGGLVEAGGSLRLSCAASGRTFSSGALGWFRQAPGKEREFVATIRWSDERTQYSEFVKGRFTISRDNAKNTVYLQMNNLQPEDTAVYYCRSTVGNLLYWGQGTQVTVSS
notes: as for B1

Each binder was assayed against T1, human activated protein C (APC) (human, UniProt P04070 43-461) (assay: cell-based or functional assay).
T1 sequence (P04070 other isoform, or with tags, fused parts or gaps): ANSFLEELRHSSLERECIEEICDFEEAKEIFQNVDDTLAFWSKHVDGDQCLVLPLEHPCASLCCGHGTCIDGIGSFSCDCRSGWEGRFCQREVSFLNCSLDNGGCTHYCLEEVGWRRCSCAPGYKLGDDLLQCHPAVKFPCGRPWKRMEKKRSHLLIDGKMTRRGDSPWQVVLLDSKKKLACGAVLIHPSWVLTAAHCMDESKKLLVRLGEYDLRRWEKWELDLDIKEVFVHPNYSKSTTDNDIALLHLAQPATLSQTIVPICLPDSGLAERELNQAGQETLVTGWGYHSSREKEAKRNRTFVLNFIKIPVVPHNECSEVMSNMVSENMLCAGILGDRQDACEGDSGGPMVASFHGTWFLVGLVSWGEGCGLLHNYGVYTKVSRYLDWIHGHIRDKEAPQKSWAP

Binder | APC plasma T1/2 (min; mean) [min]
B1 | 16.1
B2 | 33.9
B3 | 67.1
B4 | 85.6
B5 | 36.4
B6 | 50.1
B7 | 27.7
B8 | 25
B9 | 38.2
B10 | 29.3

What follows are binders tested against T1, human activated protein C (APC) (assay: BLI, VHH captured via anti-V5, APC in solution).

Binder | Kd [nM] | koff [s⁻¹] | kon [M⁻¹ s⁻¹]
B1 | 4.5 | 0.0011 | 240000
B2 | 9.4 | 0.0041 | 440000
B3 | 1.2 | 0.00041 | 350000
B4 | 1.9 | 0.0007 | 380000
B5 | 16 | 0.0066 | 400000
B11 | 2.8 | 0.0017 | 620000
B6 | 0.68 | 0.00026 | 380000
B7 | 0.003 | 6.3e-07 | 210000
B8 | 2.1 | 0.00069 | 330000
B9 | 8.8 | 0.0011 | 130000
B10 | 4.5 | 0.0011 | 230000

What follows are binders tested against T2, human protein C (PC) zymogen (human, UniProt P04070 43-197; P04070 200-461) (assay: ELISA screen, PC-coated wells, OD450, n=2 [Continued]).
T2 construct: Bought
T2 sequence (P04070 43-197, chain 1 of 2): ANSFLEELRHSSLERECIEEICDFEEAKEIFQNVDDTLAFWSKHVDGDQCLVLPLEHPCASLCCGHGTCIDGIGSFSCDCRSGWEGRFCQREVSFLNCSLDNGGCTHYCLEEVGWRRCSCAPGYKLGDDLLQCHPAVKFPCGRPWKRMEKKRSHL
T2 sequence (P04070 200-461, chain 2 of 2): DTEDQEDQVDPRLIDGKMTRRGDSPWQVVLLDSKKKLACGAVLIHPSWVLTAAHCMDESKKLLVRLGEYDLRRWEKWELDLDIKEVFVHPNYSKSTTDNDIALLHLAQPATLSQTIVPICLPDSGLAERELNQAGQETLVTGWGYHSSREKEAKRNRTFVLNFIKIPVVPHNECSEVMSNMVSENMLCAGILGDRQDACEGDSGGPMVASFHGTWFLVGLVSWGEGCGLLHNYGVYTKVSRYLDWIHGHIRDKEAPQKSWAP

Binder | binding result
B3 | no binding
B4 | no binding
B7 | no binding
B8 | no binding

These binders were tested against T3, FXIa (UniProt P03951 19-625) (assay: ELISA, FXIa coated at 10 µg/mL, HRP-anti-V5, n=3).
T3 construct: also called factor XIa
T3 sequence (P03951 19-625 limits assumed): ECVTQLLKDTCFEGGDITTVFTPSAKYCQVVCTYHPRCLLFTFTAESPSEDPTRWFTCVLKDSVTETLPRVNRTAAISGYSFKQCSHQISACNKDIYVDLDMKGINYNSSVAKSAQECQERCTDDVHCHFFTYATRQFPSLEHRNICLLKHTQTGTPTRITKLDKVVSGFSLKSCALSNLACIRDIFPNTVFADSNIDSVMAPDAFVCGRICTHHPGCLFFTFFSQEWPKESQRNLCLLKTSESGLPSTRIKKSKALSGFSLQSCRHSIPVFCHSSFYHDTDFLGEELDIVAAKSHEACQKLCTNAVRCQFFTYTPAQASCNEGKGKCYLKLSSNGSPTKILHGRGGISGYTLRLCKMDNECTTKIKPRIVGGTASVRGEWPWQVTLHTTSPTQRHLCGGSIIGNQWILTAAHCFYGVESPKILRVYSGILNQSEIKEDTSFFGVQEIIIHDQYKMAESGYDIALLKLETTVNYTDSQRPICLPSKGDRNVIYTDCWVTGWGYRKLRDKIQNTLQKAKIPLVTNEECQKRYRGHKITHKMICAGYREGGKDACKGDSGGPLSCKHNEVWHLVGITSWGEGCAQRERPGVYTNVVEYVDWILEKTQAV

Binder | binding result
B1 | no binding (tested: 2 µg/mL)
B2 | no binding (tested: 2 µg/mL)
B3 | no binding (tested: 2 µg/mL)
B4 | no binding (tested: 2 µg/mL)
B5 | no binding (tested: 2 µg/mL)
B11 | no binding (tested: 2 µg/mL)
B6 | no binding (tested: 2 µg/mL)
B7 | no binding (tested: 2 µg/mL)
B8 | no binding (tested: 2 µg/mL)
B9 | no binding (tested: 2 µg/mL)
B10 | no binding (tested: 2 µg/mL)

These binders were tested against T1, human activated protein C (APC) (assay: BLI; end tied to LP8 by Table 5; upper end of the kon range; LP8).

Binder | kon [M⁻¹ s⁻¹]
B11 | 622000

Molecular target: T1, human activated protein C (APC)
Assay: cell-based or functional assay
Remark: another data set of the same source

Binder | R46/R41 cleavage ratio of PAR1 by APC | APC-mediated histone H3 cleavage, 500 nM nanobody [% residual activity] | Protac-APTT clotting time, 300 nM nanobody [%]
B1 | > 1 ratio |  | 
B2 |  | < 75 | 
B3 |  | < 75 | 
B4 |  |  | > 90
B11 |  | < 75 | > 90
B6 |  | < 75 | 
B7 |  |  | > 90
B8 | > 1 ratio and ≤ 2.5 fold |  | > 90
B9 |  | < 75 | > 90
B10 |  | < 75 | 

What follows are binders tested against T1, human activated protein C (APC) (assay: BLI (Octet), nanobody captured, 5 APC concentrations, 1:1 model; written in place of a bar).

Binder | Kd [nM]
B7 | < 0.01

Each binder was assayed against T1, human activated protein C (APC) (assay: BLI; end tied to LP2 by Table 5; lower end of the kon range; LP2).

Binder | kon [M⁻¹ s⁻¹]
B9 | 126000

Each binder was assayed against T1, human activated protein C (APC) (assay: BLI (Octet): nanobody captured on anti-V5 sensor, dipped in 500 nM APC; buffer sensor reads 0.06).

Binder | APC binding (nm)
B1 | 0.29
B2 | 0.34
B3 | 0.32
B4 | 0.3
B5 | 0.31
B11 | 0.32
B6 | 0.31
B7 | 0.33
B8 | 0.3
B9 | 0.29
B10 | 0.29

What follows are binders tested against T4, FVIIa (UniProt P08709 61-466) (assay: ELISA, FVIIa coated at 10 µg/mL, HRP-anti-V5, n=3).
T4 construct: also called factor VIIa
T4 sequence (looked up): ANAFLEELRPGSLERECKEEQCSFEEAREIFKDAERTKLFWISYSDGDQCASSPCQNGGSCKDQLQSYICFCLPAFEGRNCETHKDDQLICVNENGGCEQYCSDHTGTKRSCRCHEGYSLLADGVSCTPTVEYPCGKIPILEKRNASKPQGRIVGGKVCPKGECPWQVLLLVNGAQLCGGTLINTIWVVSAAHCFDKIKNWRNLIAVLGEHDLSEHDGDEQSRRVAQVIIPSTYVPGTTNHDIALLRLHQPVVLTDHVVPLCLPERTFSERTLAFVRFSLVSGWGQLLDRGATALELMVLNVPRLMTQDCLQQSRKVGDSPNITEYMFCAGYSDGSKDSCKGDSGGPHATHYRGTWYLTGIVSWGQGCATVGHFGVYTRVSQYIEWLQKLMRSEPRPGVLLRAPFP

Binder | binding result
B1 | no binding (tested: 2 µg/mL)
B2 | no binding (tested: 2 µg/mL)
B3 | no binding (tested: 2 µg/mL)
B4 | no binding (tested: 2 µg/mL)
B5 | no binding (tested: 2 µg/mL)
B11 | no binding (tested: 2 µg/mL)
B6 | no binding (tested: 2 µg/mL)
B7 | no binding (tested: 2 µg/mL)
B8 | no binding (tested: 2 µg/mL)
B9 | no binding (tested: 2 µg/mL)
B10 | no binding (tested: 2 µg/mL)

The binders below were run against T2, human protein C (PC) zymogen (assay: ELISA).

Binder | binding result
B5 | no binding
B6 | no binding
B10 | no binding

The binders below were run against T2, human protein C (PC) zymogen (assay: ELISA screen, PC-coated wells, OD450, n=2).

Binder | binding result
B11 | no binding
B9 | no binding

What follows are binders tested against T1, human activated protein C (APC) (assay: BLI; end tied to LP12 by Table 5; lower end of the koff range, LP9 set apart; LP12).

Binder | koff [s⁻¹]
B6 | 0.000259

Molecular target: T2, human protein C (PC) zymogen
Assay: ELISA screen, PC-coated wells, OD450, n=2 [Continued]
Remark: another data set of the same source

Binder | binding result
B1 | no binding
B2 | no binding
